Assay results published in patent US20110171220A1 (published 2011).

Biological target: Monomeric soluble human PD-1 (human, UniProt Q15116 25-170)
Experiment: SPR; pH 7.4

Monomeric soluble human PD-1, sequence (Q15116 25-170): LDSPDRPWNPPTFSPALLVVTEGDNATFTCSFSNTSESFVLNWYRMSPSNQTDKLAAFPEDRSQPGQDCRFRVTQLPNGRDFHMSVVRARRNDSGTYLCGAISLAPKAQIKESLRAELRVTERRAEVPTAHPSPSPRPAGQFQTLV

koff [s⁻¹] | Binder
~0.0027 | Clone 2 anti-PD-1 antibody (antibody, V domains shown) VH: QVQLQQPGAELVKPGASVKLSCKASGYTFTTYYLYWVRQRPGQGLEWIGGINPSNGGTNFNEKFKSKATLTVDKSSSTAYMQLNSLTSEDSAVYYCTRRDYRYDRGFDYWGQGTSVTV VL: DIVLTQSPASLAVSLGQRATISCRASKSVSTSGFNYIHWYQQKPGQPPKLLIYLASNLESGVPARFSGSGSGTDFTLNIHPVEDEDAATYYCQHSRELPLTFGAGTKLEIK
~0.0013 | Clone 19 anti-PD-1 antibody (antibody, V domains shown) VH: QVQLQQSGAELVKPGASVKMSCKAFGYTFTTYPIEWMKQNHGKSLEWIGNFHPYNDDTKYNEKFKGKAKLTVEKSSTTVYLELSRLTSDDSAVYYCARENYGSHGGFVYWGQGTLVTV VL: ENVLTQSPAIMSASPGEKVTMTCRASSSVISSYLHWYQQKSGASPKLWIYSTSNLASGVPDRFSGSGSGTSYSLTISSVEAEDAATYYCQQYNGYPLTFGAGTKLEIK
~0.4 | Clone 10 anti-PD-1 antibody (antibody, V domains shown) VH: DVQLQESGPGLVKPSQSLSLTCTVTGYSITSDYAWNWIRQFPGNKLEWMGYINYSGSTSYNPSLKSRISITRDTSKNQFFLQLNSVTTEDTATYYCARWIGSSAWYFDVWGAGTTVTV VL: DVLMTQTPLSLPVSLGDQASISCRSGQNIVHSNGNTYLEWYLQKPGQSPKLLIYKVSNRFFGVPDRISGSGSGTDFTLKISRVEAEDLGVYFCFQGSHVPFTFGSGTKLEIK
